Source: the RNAGym collection of RNA variant scans (doi:10.1073/pnas.2313332121)

B1: TPR t1 (parent)
chain: GACCAAUCUGCCCUCAGAGCUCGAGAACAUCUUCGGAUGCAGAGGAGGCAGGCUUCGGUGGCGCGAUAGCGCCAACGUCCUCAACCUCCAAUGCAUCCCACCACAUGAUGAUGCCUGAAGAGCCUUGGUUUUUUG

Variants of: B1
Assay: polymerase ribozyme fitness, log enrichment relative to wild type (log ratio); higher = more active; in vitro selection for triplet polymerase activity
In short: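 The heterodimeric triplet polymerase ribozyme's subunits were each mutagenized into PCR-built libraries and transcribed. Every library was selected once, in triplicate, by annealing with a biotinylated primer, the partner subunit and triplets, incubating frozen at −7 °C, gel-excising extended constructs, capturing on streptavidin beads and running RT-PCR. Input and output libraries were Illumina-sequenced, with genotypes kept only at ≥10 input reads and ≥1 read per output. Fitness, from inverse-variance-weighted replicate averages, is the base-2 logarithm of genotype enrichment over wild-type enrichment.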

| Variant | polymerase ribozyme fitness (log ratio) |
| --- | --- |
| GACCAAUCUGCCCUCAGAGCUCGAGAACAUCUUCGGAUGAAGAGGAGGCAGGCUUCGGUGCCGCGAUAGCGCCAACGUCCUCAACCUCCAAUGCAUCCCACCACAUGAUGAUGCCUGAAGAGCCUGGGUUUUUUG [C40A G61C U126G] | -5.2 |
| GACCAAUCUGGCCUCAGAGCUCGAGAACAUCUUCGGAUGCAGAGGAGGCAGGCUUCGGUGGCGCGAUAGCGCGAACGUCCUCAAACUCCAAUGCAUCCCACCACAUGAUGGUGCCUGAAGAGCCUUGGUUUUUUG [C11G C73G C85A A111G] | -1.47 |
| GACCAAUCUGCCCUCAGAGCUCGAGAACAUCUUCGGAUGCAGAGGAGGCAGGCUUCCAUGGCGCGAUAGCGCCAACGUCCUCAACCUCCAAUGCAUCCCACCACAUGAUGAUGUCUGAAGAGCCUUGGUUUUUUG [G57C G58A C114U] | -3.53 |
| GACCAAUCUGCCCUCAGAGCUCGAGAACAUCUUCGGAUGAAGAGGAGGCAGGCUUCGGUGCCGCGAUAGCGCCAACGUCCUCAACCUCCAAUGCAUCCCACCACAUGAUGAUGCCUGUAGAGCCUUGGUGUUUUG [C40A G61C A118U U130G] | -3.57 |
| GACCAAUCCGCCCUGAGAGCUCGAGAACAUCUUCGGAUGCAGAGGAGGCAGGCUUCGGUGGCGCGAUAGCGCCAACGUCCUCAACCUCCAAUGCAUCCCACCACAAGAUGAUGCCUGAAGAGCCUUGGUUUUUUG [U9C C15G U106A] | -1.27 |
| GUCCAAUCUGCCCUCAGAGCUCGAGAACAUCUUCGGAUGCAGAGGAGGCAGGCUUCGGUGGCGCGAUAGCGCCAACGUCCUCAACCUCCAAUGCAUCCCACCACAUGAUGAUGCCUGAACAGCCUUGGUUUUUUG [A2U G120C] | -1.67 |
| GACCAAUCUGCCCUCAGAGCUCGAGAACAUCUUCGGAUGCAGAGGAGGCAGGCUUCGGUGGCGCGAUAGCGCCAACGUCCUCAUCCUCCAAUGCAUCCCACCACAGGAUGAUGCCUGGAGAGCCUUGGUUUUUUG [A84U U106G A118G] | -1.83 |
| GACCAUUCUGCUCUCAGAGCUCGAGAACAUCUUCGGAUGCAGAGGAGGCAGGCUUCGGUGGCGCGAUAGCGCCAACGUCCUCAACCUCCAAUGCAUCCCACCACAUGAUUAUGCCUGAAGAGCCUUGGUCUUUUG [A6U C12U G110U U130C] | -0.715 |
| GACCAAUCUGCCCUCAGAGCUCGAGAACAUCUUCGGAUGCAGCGGAGGCAGGCUUCGGUGGUGCGAUAGCGCCAACGUCCUCAGCCUCCAAUGCAUCCCACCACAUGAUGAUGCCUGAAGAGCCUUGGUUUUUUG [A43C C62U A84G] | -5.86 |
| GACCAAUCUGCUCUCAGAGCUCGAGAACAUCUUCGGAUGCAGAGGAGGCAGGCUUCGGUGGCGCGAUAGCGCCAACGCCCUCAACCUCCAAUGCAUCCCACCACAUGAUUAUGCCUGAAGAGCCUUGGUUUUUUG [C12U U78C G110U] | -1.38 |
| GACCAAUCUGCCCUCAGAGCUCGAGAACAUCUUCGGAUGCAGAGGAGGCAGGCUUCGGUGGCGCGAUAGCGCCAACGGCCUCAACCUCCAAUGCAUCCCACCACAUUAUGAUGCCUGAAGAGCCUUGGUUUUUUG [U78G G107U] | -5.32 |
| GACCAAUCUGCACUCAGCGCUCGAGAACGUCUUCGGAUGCAGAGGAGGCAGGCUUCGGUGGCGCGAUAGCGACAACGUCCUCAACCUCCAAUGCAUCCCACCACAUGAUGAUGCCUGAAGAGCCUUGGUUUUUUG [C12A A18C A29G C72A] | -2.28 |
| GACCAAUCUGCCCUCAGAGUUCGAGAACAUCUUCGGAUGCAGAGGAGGCAGGGUUCGGUGGCGCGAUAGCGCCAACGUCCUCAACCUCCAAUGCAUCCCACCACAUGAUGAUGCCUGAAGAGCCUUGGUUUUUUG [C20U C53G] | -1.28 |
| GACCAAUCUGCCCUCAGAGCUCGAGAACAUCUUCGGAUGCAGAGGAAGCAGGCUUCGGUGGCGCGAUAGCGCCAACGUCCUCAACCUCCACUGCAUCCCACCACAUGAUGAUGCCUUAAGAGCCUUGGUUUUGUG [G47A A91C G117U U133G] | -4.6 |
| GUCCAAUCUUCCCUGAGAGCUCGAGAACAUCUUCGGAUGCAGAGGAGGCAGGCUUCGGUGGCGCGAUAUCGCCAACGUCCUCAACCUCCAAUGCAUCCCACCACAAGAUGAUGCCUGAAGAGCCUUGGUUUUUUG [A2U G10U C15G G69U U106A] | -0.732 |
| GACCAAUCUGCCCUCAGCGCUCGAGAACAUCUUCGGAUGCAGAGGAGGCAGGCUUCGGUGGCGCGAUAGCGCCAACGUCCUCAACCGCCAAUGCAUCCCACCACAUGAUGAUGCCUGAAGAGCCUUGGUUUAUUG [A18C U87G U132A] | -2.91 |
| GACCAAUCUGCCCUCAGAGCUCGAGGACAUCUUCGGAUGCAGAGGAGGCAGGCUUCGGUGGCGCGAUAGCGCCAACGUCCUCAACCUCCAAUGCAUCCCACCACGUGAUGAUGCCUGAAGAGCCUUGGUUUUUUG [A26G A105G] | -4.04 |
| GACCAAUCCGCCCUCAGAGCUCGAGAACAUCUUCGGAUGCAGAGGAGGCAGGCUUCGGUGGUGCGAUAGCGCCAACGUCCUCAACCUCCAAUGCAUCCCACUACAUGAUGAUGCCUGAAGAGCCUUGGUUUUUUG [U9C C62U C102U] | -1.87 |
| GACCAAUCUGCCCUCAGAGCUCGAGAACAUCUUCGGAUGCAGAGGAGGGAGGCUUCGGUGGCGCGAUAGCGCCAACGUCCGCAACCUCCAAUGCAUCCCACCACAUGAUGAUGCCUGAAGAGCCUUGGUUUUUUG [C49G U81G] | -3.01 |
| GACCAAUCUGCCCUCAGAGCUCGAGAACAUCUUGGGAUGCAGAGGAGGCAGGCUUCGGUGGCGCGAUAGCGCCAACGUCCUCAACCUCCAAUGCAUCGCACCACAUGAUGAUGCAUGAAGAGCCAUGGUUUUUUG [C34G C98G C115A U125A] | -7.53 |
| GACAAAUCUGCCCUCAGAGCUCGAGAUCAUCUUCGGAUGCAGAGGAGGCAGGCUUCGGUGGCGCGAUAGCGCCAACGUCCUCAACCUCCAAUGCAUCCCACCACAUGAUGAUGCCUGAAGAGCCUUGGUUUUUUG [C4A A27U] | -3.57 |
